Experimental data from publication PMC11251181, “Crystal structure of MAGEA4 MHD-RAD18 R6BD reveals a flipped binding mode compared to AlphaFold2 prediction” (The EMBO Journal, 2024).
No end group written: not given here.

Biological target: T1, MAGEA4 MAGE homology domain (MHD), residues D101-V317 (human, UniProt P43358 101-317)
T1 construct: MAGEA4, human, MAGE homology domain, residues D101-V317; His6 tag removed with TEV protease; also called MAGEA4 MHD; MAGEA4-MHD; source: E. coli BL21 (DE3), purified (Ni-NTA, TEV cleavage, Superdex-75 SEC); not shown: His6, N-terminal, cleaved
T1 sequence (looked up): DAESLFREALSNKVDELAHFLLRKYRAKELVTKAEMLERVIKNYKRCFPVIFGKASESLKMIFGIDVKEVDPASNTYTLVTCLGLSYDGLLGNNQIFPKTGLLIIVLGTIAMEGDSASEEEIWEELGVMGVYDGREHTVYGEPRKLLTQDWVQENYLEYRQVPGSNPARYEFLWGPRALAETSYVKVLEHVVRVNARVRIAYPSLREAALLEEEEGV
Test: crystal structure; MAGEA4 MHD (10.3 mg/mL) incubated on ice with a 1:2 molar ratio of RAD18 R6BD in 20 mM Tris HCl pH 7.5, 200 mM NaCl, 1 mM TCEP; sitting drop vapor diffusion; 2.58 Å
Conditions: both partners purified

binding result: binds
B1: RAD18 RAD6-binding domain (R6BD) peptide, residues H339-G366 (peptide, UniProt Q9NS91 339-366, looked up)
peptide: HSKYRKKHKSEFQLLVDQARKGYKKIAG-NH2
notes: also called RAD18 R6BD; source: synthetic peptide (UNC Chapel Hill High-Throughput Peptide Synthesis and Array Facility)
